# ± gives the uncertainty stated by the source.
# B1: SWI/SNF complex subunit SMARCC1, residues 620 to 663; numbered along this chain, Q92922 (parent)
# chain: GREWTEQETLLLLEALEMYKDDWNKVSEHVGSRTQDECILHFLR
# Variants of: B1
# Test: abundance fitness (aPCA) (normalised: wild type 0, dead -1); higher = more abundant; growth selection in yeast, the domain comes from the species named
# Details: Homo sapiens
row,Variant,abundance fitness
1,GREWTEQETLLLLEFLEMYKDDWNKVSEHVGSRTQDECILHFLR,-0.616 ± 0.29
2,GREWTEQETLLLLEPLEMYKDDWNKVSEHVGSRTQDECILHFLR,-1.19 ± 0.34
3,GREWTEQETLLLLEQLEMYKDDWNKVSEHVGSRTQDECILHFLR,-0.72 ± 0.34
4,GREWTEQETLLLLEKLEMYKDDWNKVSEHVGSRTQDECILHFLR,-0.925 ± 0.24
5,GREWTEQETLLLLEVLEMYKDDWNKVSEHVGSRTQDECILHFLR,-0.886 ± 0.11
6,GREWTEQETLLLLELLEMYKDDWNKVSEHVGSRTQDECILHFLR,-0.926 ± 0.13
7,GREWTEQETLLLLERLEMYKDDWNKVSEHVGSRTQDECILHFLR,-0.82 ± 0.14
8,GREWTEQETLLLLEGLEMYKDDWNKVSEHVGSRTQDECILHFLR,0.03 ± 0.056
9,GREWTEQETLLLLESLEMYKDDWNKVSEHVGSRTQDECILHFLR,-0.043 ± 0.058
10,GREWTEQETLLLLSALEMYKDDWNKVSEHVGSRTQDECILHFLR,-0.27 ± 0.068
11,GREWTEQETLLLLVALEMYKDDWNKVSEHVGSRTQDECILHFLR,-0.552 ± 0.17
12,GREWTEQETLLLLKALEMYKDDWNKVSEHVGSRTQDECILHFLR,-0.006 ± 0.12
13,GREWTEQETLLLLHALEMYKDDWNKVSEHVGSRTQDECILHFLR,-0.311 ± 0.1
14,GREWTEQETLLLLRALEMYKDDWNKVSEHVGSRTQDECILHFLR,-0.28 ± 0.12
15,GREWTEQETLLLLPALEMYKDDWNKVSEHVGSRTQDECILHFLR,-1.15 ± 0.48
16,GREWTEQETLLLLYALEMYKDDWNKVSEHVGSRTQDECILHFLR,-0.428 ± 0.2
17,GREWTEQETLLLLTALEMYKDDWNKVSEHVGSRTQDECILHFLR,-0.18 ± 0.091
18,GREWTEQETLLLLLALEMYKDDWNKVSEHVGSRTQDECILHFLR,-0.549 ± 0.1
19,GREWTEQETLLLLQALEMYKDDWNKVSEHVGSRTQDECILHFLR,-0.045 ± 0.1
20,GREWTEQETLLLLIALEMYKDDWNKVSEHVGSRTQDECILHFLR,-0.97 ± 0.44

row,Variant,abundance fitness
1,GREWTEQETLLLLNALEMYKDDWNKVSEHVGSRTQDECILHFLR,-0.164 ± 0.12
2,GREWTEQETLLLLMALEMYKDDWNKVSEHVGSRTQDECILHFLR,-0.267 ± 0.096
3,GREWTEQETLLLLEALEMYWDDWNKVSEHVGSRTQDECILHFLR,-0.737 ± 0.13
4,GREWTEQETLLLLEALEMYFDDWNKVSEHVGSRTQDECILHFLR,-0.226 ± 0.11
5,GREWTEQETLLLLEALEMYADDWNKVSEHVGSRTQDECILHFLR,-0.139 ± 0.064
6,GREWTEQETLLLLEALEMYSDDWNKVSEHVGSRTQDECILHFLR,-0.2 ± 0.059
7,GREWTEQETLLLLEALEMYLDDWNKVSEHVGSRTQDECILHFLR,-0.618 ± 0.089
8,GREWTEQETLLLLEALEMYDDDWNKVSEHVGSRTQDECILHFLR,-0.062 ± 0.1
9,GREWTEQETLLLLEALEMYNDDWNKVSEHVGSRTQDECILHFLR,-0.105 ± 0.11
10,GREWTEQETLLLLEALEMYGDDWNKVSEHVGSRTQDECILHFLR,-0.188 ± 0.06
11,GREWTEQETLLLLEALEMYQDDWNKVSEHVGSRTQDECILHFLR,-0.278 ± 0.086
12,GREWTEQETLLLLEALEMYRDDWNKVSEHVGSRTQDECILHFLR,-0.234 ± 0.062
13,GREWTEQETLLLLEALEMYMDDWNKVSEHVGSRTQDECILHFLR,-0.118 ± 0.12
14,GREWTEQETLLLLEALEMYCDDWNKVSEHVGSRTQDECILHFLR,-0.375 ± 0.09
15,GREWTEQETLLLLEALEMYIDDWNKVSEHVGSRTQDECILHFLR,-0.019 ± 0.1
16,GREWTEQETLLLLEALEMYTDDWNKVSEHVGSRTQDECILHFLR,-0.14 ± 0.073
17,GREWTEQETLLLLEALEMYVDDWNKVSEHVGSRTQDECILHFLR,-0.123 ± 0.062
18,GREWTEQETLLLLEALEMYPDDWNKVSEHVGSRTQDECILHFLR,0.058 ± 0.064
19,GREWTEQETLLLLEALEMYEDDWNKVSEHVGSRTQDECILHFLR,-0.085 ± 0.1
20,GREWTEQETLLLLEALEMYHDDWNKVSEHVGSRTQDECILHFLR,0.021 ± 0.1

row,Variant,abundance fitness
1,GREWTEQETLLLLEAIEMYKDDWNKVSEHVGSRTQDECILHFLR,0.079 ± 0.091
2,GREWTEQETLLLLEACEMYKDDWNKVSEHVGSRTQDECILHFLR,0.197 ± 0.057
3,GREWTEQETLLLLEAAEMYKDDWNKVSEHVGSRTQDECILHFLR,0.16 ± 0.051
4,GREWTEQETLLLLEAPEMYKDDWNKVSEHVGSRTQDECILHFLR,-0.77 ± 0.11
5,GREWTEQETLLLLEAGEMYKDDWNKVSEHVGSRTQDECILHFLR,-0.05 ± 0.069
6,GREWTEQETLLLLEASEMYKDDWNKVSEHVGSRTQDECILHFLR,0.094 ± 0.063
7,GREWTEQETLLLLEADEMYKDDWNKVSEHVGSRTQDECILHFLR,-0.237 ± 0.093
8,GREWTEQETLLLLEAQEMYKDDWNKVSEHVGSRTQDECILHFLR,0.428 ± 0.075
9,GREWTEQETLLLLEAWEMYKDDWNKVSEHVGSRTQDECILHFLR,0.024 ± 0.082
10,GREWTEQETLLLLEAHEMYKDDWNKVSEHVGSRTQDECILHFLR,0.303 ± 0.073
11,GREWTEQETLLLLEAREMYKDDWNKVSEHVGSRTQDECILHFLR,0.469 ± 0.052
12,GREWTEQETLLLLEATEMYKDDWNKVSEHVGSRTQDECILHFLR,0.316 ± 0.058
13,GREWTEQETLLLLEANEMYKDDWNKVSEHVGSRTQDECILHFLR,0.136 ± 0.072
14,GREWTEQETLLLLEAVEMYKDDWNKVSEHVGSRTQDECILHFLR,0.224 ± 0.058
15,GREWTEQETLLLLEAYEMYKDDWNKVSEHVGSRTQDECILHFLR,0.334 ± 0.063
16,GREWTEQETLLLLEAEEMYKDDWNKVSEHVGSRTQDECILHFLR,0.274 ± 0.073
17,GREWTEQETLLLLEAFEMYKDDWNKVSEHVGSRTQDECILHFLR,-0.231 ± 0.083
18,GREWTEQETLLLLEAMEMYKDDWNKVSEHVGSRTQDECILHFLR,0.235 ± 0.08
